# Target: RSV protein F (fusion glycoprotein), recombinant or purified (human respiratory syncytial virus, strain not stated) (UniProt P03420)
# Test: SPR (Biacore 3000), Fab over immobilised recombinant antigen
substance,measurement,value
Fab fragment derived from commercially available Palivizumab (Synagis),Kd,3.78 nM
same,koff,0.000757 s⁻¹
same,kon,200000 M⁻¹ s⁻¹
same,t1/2,15 min
